Measurements from patent US20250135039A1, “INHIBITOR-RESISTANT MGMT MODIFICATIONS AND MODIFICATION OF MGMT-ENCODING NUCLEIC ACIDS” (Ensoma, Inc., priority 2022, published 2025).
Positions count from the first letter of the chain named. In names and notes the source's numbering stands.

B1: Y158F: MGMT polypeptide with mutation Y158F (protein)
chain: MDKDCEMKRTTLDSPLGKLELSGCEQGLHEIKLLGKGTSAADAVEVPAPAAVLGGPEPLMQCTAWLNAYFHQPEAIEEFPVPALHHPVFQQESFTRQVLWKLLKVVKFGEVISYQQLAALAGNPKAARAVGGAMRGNPVPILIPCHRVVCSSGAVGNFSGGLAVKEWLLAHEGHRLGKPGLGGSSGLAGAWLKGAGATSGSPPAGRN
B2: G160E: MGMT polypeptide with mutation G160E (protein)
chain: B1 chain with F158Y, G160E
B3: S159W: MGMT polypeptide with mutation S159W (protein)
chain: B1 chain with F158Y, S159W
B4: Y158H: MGMT polypeptide with mutation Y158H (protein)
chain: B1 chain with F158H
B5: wild-type MGMT: reference MGMT polypeptide according to SEQ ID NO: 1 (GenBank NP_002403.3); used as control (protein)
chain: B1 chain with F158Y
modifications: REGION 1..207: note = Wild Type MGMT
notes: used as control
B6: G160D: MGMT polypeptide with mutation G160D (protein)
chain: B1 chain with F158Y, G160D
B7: Y158W: MGMT polypeptide with mutation Y158W (protein)
chain: B1 chain with F158W
B8: S159F: MGMT polypeptide with mutation S159F (protein)
chain: B1 chain with F158Y, S159F
B9: A170S: MGMT polypeptide with mutation A170S (protein)
chain: B1 chain with F158Y, A170S
B10: G160P: MGMT polypeptide with mutation G160P (protein)
chain: B1 chain with F158Y, G160P
B11: G160A: MGMT polypeptide with mutation G160A (protein)
chain: B1 chain with F158Y, G160A
B12: G160H: MGMT polypeptide with mutation G160H (protein)
chain: B1 chain with F158Y, G160H
B13: S159I: MGMT polypeptide with mutation S159I (protein)
chain: B1 chain with F158Y, S159I
B14: Y158M: MGMT polypeptide with mutation Y158M (protein)
chain: B1 chain with F158M
B15: S159Y: MGMT polypeptide with mutation S159Y (protein)
chain: B1 chain with F158Y, S159Y

tested on: U251 human glioblastoma cell line; assay: in vitro FM-HCR assay of MGMT activity (mPlum O^6MeG reporter plasmid); assay type: cell-based; settings: 100 μM O^6BG; U251 cells; flow cytometry 24 h after transfection; damaged/undamaged reporter; inversely related to MGMT activity
Procedure, shortened: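 U251 cells transfected with MGMT variant plasmid, mPlum O^6MeG reporter (or undamaged mPlum plasmid) and BFP control, in 100 μM O^6BG or 0.1% DMSO; flow cytometry at 24 h. mPlum count×intensity normalized to BFP; percent reporter expression = damaged/undamaged ×100, inversely related to MGMT activity.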

Compared with B1, B2 is higher in “Reporter expression (%) mean, O^6BG” value: 61.3% for the first, 63.3% for the second.

Compared with B3, B4 is lower in “Reporter expression (%) mean, O^6BG” value: 108.0% for the first, 30.3% for the second.

Going from B5 to B6, the “Reporter expression (%) mean, O^6BG” value rises from 70.0% to 72.8%.

Compared with B7, B8 is higher in “Reporter expression (%) mean, O^6BG” value: 86.7% for the first, 102.7% for the second.

First: B9
Second: B10
The “Reporter expression (%) mean, O^6BG” value of the first is higher: 85.0% for the first, 47.5% for the second.

Compared with B11, B12 is lower in “Reporter expression (%) mean, O^6BG” value: 74.5% for the first, 21.3% for the second.

Going from B13 to B14, the “Reporter expression (%) mean, O^6BG” value rises from 40.3% to 60.0%.

In the case of B15, the “Reporter expression (%) mean, O^6BG” value is reported as 142.7%.

same assay, conditions: 0.1% DMSO; U251 cells; flow cytometry 24 h after transfection; damaged/undamaged reporter; inversely related to MGMT activity

Going from B1 to B2, the “Reporter expression (%) mean, DMSO” value rises from 12.3% to 15.3%.

Compared with B3, B4 is lower in “Reporter expression (%) mean, DMSO” value: 31.3% for the first, 23.3% for the second.

First: B5
Second: B6
The “Reporter expression (%) mean, DMSO” value of the first is lower: 18.5% for the first, 23.0% for the second.

Compared with B7, B8 is lower in “Reporter expression (%) mean, DMSO” value: 26.0% for the first, 23.0% for the second.

Compared with B9, B10 is higher in “Reporter expression (%) mean, DMSO” value: 15.8% for the first, 22.8% for the second.

Going from B11 to B12, the “Reporter expression (%) mean, DMSO” value falls from 15.5% to 10.3%.

First: B13
Second: B14
The “Reporter expression (%) mean, DMSO” value of the first is lower: 18.0% for the first, 47.7% for the second.

With B15 the “Reporter expression (%) mean, DMSO” value was 26.0%.

same assay, conditions: DMSO condition; determined from percent reporter expression

Going from B1 to B2, the “MGMT activity (a.u.) DMSO” value falls from 8.11 a.u to 6.56 a.u.

Going from B3 to B4, the “MGMT activity (a.u.) DMSO” value rises from 3.19 a.u to 4.29 a.u.

Going from B5 to B6, the “MGMT activity (a.u.) DMSO” value falls from 5.41 a.u to 4.35 a.u.

First: B7
Second: B8
The “MGMT activity (a.u.) DMSO” value of the first is lower: 3.85 a.u for the first, 4.35 a.u for the second.

First: B9
Second: B10
The “MGMT activity (a.u.) DMSO” value of the first is higher: 6.35 a.u for the first, 4.40 a.u for the second.

First: B11
Second: B12
The “MGMT activity (a.u.) DMSO” value of the first is lower: 6.45 a.u for the first, 9.68 a.u for the second.

Compared with B13, B14 is lower in “MGMT activity (a.u.) DMSO” value: 5.56 a.u for the first, 2.10 a.u for the second.

With B15 the “MGMT activity (a.u.) DMSO” value was 3.85 a.u.

same assay, conditions: DMSO condition; relative to wild-type MGMT in same condition

For B1, the “MGMT activity (% of WT) DMSO” value was 150.0 % of WT.
B2 was tested, and the “MGMT activity (% of WT) DMSO” value was 121.3 % of WT.
For B3, the “MGMT activity (% of WT) DMSO” value was 59.0 % of WT.
With B4 the “MGMT activity (% of WT) DMSO” value was 79.3 % of WT.
With B5 the “MGMT activity (% of WT) DMSO” value was 100.0 % of WT.
For B6, the “MGMT activity (% of WT) DMSO” value was 80.4 % of WT.
B7 was tested, and the “MGMT activity (% of WT) DMSO” value was 71.2 % of WT.
With B8 the “MGMT activity (% of WT) DMSO” value was 80.4 % of WT.
With B9 the “MGMT activity (% of WT) DMSO” value was 117.5 % of WT.
For B10, the “MGMT activity (% of WT) DMSO” value was 81.3 % of WT.
For B11, the “MGMT activity (% of WT) DMSO” value was 119.4 % of WT.
In the case of B12, the “MGMT activity (% of WT) DMSO” value is reported as 179.0 % of WT.
In the case of B13, the “MGMT activity (% of WT) DMSO” value is reported as 102.8 % of WT.
In the case of B14, the “MGMT activity (% of WT) DMSO” value is reported as 38.8 % of WT.
For B15, the “MGMT activity (% of WT) DMSO” value was 71.2 % of WT.

same assay, conditions: MGMT activity (a.u.) in O^6BG divided by DMSO x 100; higher values indicate resistance

First: B1
Second: B2
The “Relative MGMT activity (%)” value of the first is lower: 20.1% for the first, 24.1% for the second.

Compared with B3, B4 is higher in “Relative MGMT activity (%)” value: 29.0% for the first, 76.9% for the second.

Going from B5 to B6, the “Relative MGMT activity (%)” value rises from 26.4% to 31.6%.

Going from B7 to B8, the “Relative MGMT activity (%)” value falls from 30.0% to 22.4%.

Going from B9 to B10, the “Relative MGMT activity (%)” value rises from 18.5% to 47.9%.

Compared with B11, B12 is higher in “Relative MGMT activity (%)” value: 20.8% for the first, 48.4% for the second.

First: B13
Second: B14
The “Relative MGMT activity (%)” value of the first is lower: 44.6% for the first, 79.4% for the second.

With B15 the “Relative MGMT activity (%)” value was 18.2%.

same assay, conditions: O^6BG condition; determined from percent reporter expression

First: B1
Second: B2
The “MGMT activity (a.u.) O^6BG” value of the first is higher: 1.63 a.u for the first, 1.58 a.u for the second.

Compared with B3, B4 is higher in “MGMT activity (a.u.) O^6BG” value: 0.93 a.u for the first, 3.30 a.u for the second.

Compared with B5, B6 is lower in “MGMT activity (a.u.) O^6BG” value: 1.43 a.u for the first, 1.37 a.u for the second.

Going from B7 to B8, the “MGMT activity (a.u.) O^6BG” value falls from 1.15 a.u to 0.97 a.u.

Compared with B9, B10 is higher in “MGMT activity (a.u.) O^6BG” value: 1.18 a.u for the first, 2.11 a.u for the second.

Compared with B11, B12 is higher in “MGMT activity (a.u.) O^6BG” value: 1.34 a.u for the first, 4.69 a.u for the second.

Compared with B13, B14 is lower in “MGMT activity (a.u.) O^6BG” value: 2.48 a.u for the first, 1.67 a.u for the second.

With B15 the “MGMT activity (a.u.) O^6BG” value was 0.70 a.u.

same assay, conditions: O^6BG condition; relative to wild-type MGMT in same condition

With B1 the “MGMT activity (% of WT) O^6BG” value was 114.1 % of WT.
With B2 the “MGMT activity (% of WT) O^6BG” value was 110.7 % of WT.
In the case of B3, the “MGMT activity (% of WT) O^6BG” value is reported as 64.8 % of WT.
In the case of B4, the “MGMT activity (% of WT) O^6BG” value is reported as 230.8 % of WT.
B5 was tested, and the “MGMT activity (% of WT) O^6BG” value was 100.0 % of WT.
In the case of B6, the “MGMT activity (% of WT) O^6BG” value is reported as 96.2 % of WT.
For B7, the “MGMT activity (% of WT) O^6BG” value was 80.8 % of WT.
For B8, the “MGMT activity (% of WT) O^6BG” value was 68.2 % of WT.
With B9 the “MGMT activity (% of WT) O^6BG” value was 82.4 % of WT.
For B10, the “MGMT activity (% of WT) O^6BG” value was 147.4 % of WT.
In the case of B11, the “MGMT activity (% of WT) O^6BG” value is reported as 94.0 % of WT.
In the case of B12, the “MGMT activity (% of WT) O^6BG” value is reported as 328.1 % of WT.
In the case of B13, the “MGMT activity (% of WT) O^6BG” value is reported as 173.6 % of WT.
B14 was tested, and the “MGMT activity (% of WT) O^6BG” value was 116.7 % of WT.
For B15, the “MGMT activity (% of WT) O^6BG” value was 49.1 % of WT.

same assay, conditions: lower values indicate resistance to O^6BG

Compared with B1, B2 is lower in “Ratio percent reporter expression (O^6BG/DMSO)” value: 4.97 for the first, 4.15 for the second.

Going from B3 to B4, the “Ratio percent reporter expression (O^6BG/DMSO)” value falls from 3.45 to 1.30.

First: B5
Second: B6
The “Ratio percent reporter expression (O^6BG/DMSO)” value of the first is higher: 3.78 for the first, 3.16 for the second.

Compared with B7, B8 is higher in “Ratio percent reporter expression (O^6BG/DMSO)” value: 3.33 for the first, 4.46 for the second.

Going from B9 to B10, the “Ratio percent reporter expression (O^6BG/DMSO)” value falls from 5.40 to 2.09.

Going from B11 to B12, the “Ratio percent reporter expression (O^6BG/DMSO)” value falls from 4.81 to 2.06.

First: B13
Second: B14
The “Ratio percent reporter expression (O^6BG/DMSO)” value of the first is higher: 2.24 for the first, 1.26 for the second.

With B15 the “Ratio percent reporter expression (O^6BG/DMSO)” value was 5.49.

same assay, conditions: percentage difference in relative MGMT activity between variant and wild-type MGMT

Compared with B1, B2 is higher in “O^6BG resistance relative to WT (%)” value: −23.9% for the first, −8.8% for the second.

Compared with B3, B4 is higher in “O^6BG resistance relative to WT (%)” value: 9.8% for the first, 191.1% for the second.

Going from B5 to B6, the “O^6BG resistance relative to WT (%)” value rises from 0.0% to 19.6%.

First: B7
Second: B8
The “O^6BG resistance relative to WT (%)” value of the first is higher: 13.5% for the first, −15.2% for the second.

First: B9
Second: B10
The “O^6BG resistance relative to WT (%)” value of the first is lower: −29.9% for the first, 81.2% for the second.

Compared with B11, B12 is higher in “O^6BG resistance relative to WT (%)” value: −21.3% for the first, 83.3% for the second.

Compared with B13, B14 is higher in “O^6BG resistance relative to WT (%)” value: 68.9% for the first, 200.6% for the second.

For B15, the “O^6BG resistance relative to WT (%)” value was −31.0%.
